Where “and” joins values, the source holds several entries; their conditions need not be identical. Equal values may be shown once.
Target: T1, apoptosis-associated speck-like protein containing a CARD (mouse (endogenous in primary cortical astrocytes)), Q9EPB4
T1 chain: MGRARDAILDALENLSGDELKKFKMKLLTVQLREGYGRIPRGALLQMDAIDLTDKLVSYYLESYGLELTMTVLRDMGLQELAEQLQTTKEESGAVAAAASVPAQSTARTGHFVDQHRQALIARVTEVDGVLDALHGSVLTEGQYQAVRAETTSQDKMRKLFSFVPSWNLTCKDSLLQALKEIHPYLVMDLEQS
Experiment: cross-linking; astrocytes treated with ATP, LPS or ethanol, lysed in PBS/Triton 0.5%; 8000 x g pellets cross-linked with 2 mM DSS for 30 min at room temperature; 12% SDS-PAGE, blot with anti-mouse ASC
Details: remark: other sources report otherwise

stoichiometry N: 2 and 3
B1: apoptosis-associated speck-like protein containing a CARD, Q9EPB4 1-193 (natural protein)
chain: MGRARDAILDALENLSGDELKKFKMKLLTVQLREGYGRIPRGALLQMDAIDLTDKLVSYYLESYGLELTMTVLRDMGLQELAEQLQTTKEESGAVAAAASVPAQSTARTGHFVDQHRQALIARVTEVDGVLDALHGSVLTEGQYQAVRAETTSQDKMRKLFSFVPSWNLTCKDSLLQALKEIHPYLVMDLEQS

From publication PMC4118026
